Test results taken from US20240279281A1, “Peptide Inhibitors of Interleukin-23 Receptor” (Janssen Pharmaceutica NV, priority 2023, published 2024).
Where a name gives a salt, the structure may show the parent alone. Read-outs that look alike come from different tables or passages of the source. Starred links: 1 amine or outer side, 2 acyl side, 3 side chain; linkers in the order of their positions; H or OH if unused. Positions of bridges follow the written chain, without caps; N, C: chain ends. Non-standard residues stand in square brackets, D forms with d. Residues, ends and D or L forms follow the SMILES beside them. Groups on a side chain read outwards from the residue. Primed or numbered codes have the meaning given here. *: point of attachment. TMAPF = 5-(4-(2-amino-2-carboxyethyl)phenoxy)-N,N,N-trimethylpentan-1-aminium, C[N+](C)(C)CCCCCOc1ccc(C[C@H](N[*:1])C(=O)[*:2])cc1; AEF(G) = 2-amino-3-(4-(2-guanidinoethoxy)phenyl)propanoic acid, N=C(N)NCCOc1ccc(C[C@H](N[*:1])C(=O)[*:2])cc1; 6Br2Nal = 2-amino-3-(6-bromonaphthalen-2-yl)propanoic acid, O=C([C@H](Cc1ccc2cc(Br)ccc2c1)N[*:1])[*:2]; 6F2Nal = 2-amino-3-(6-fluoronaphthalen-2-yl)propanoic acid, O=C([C@H](Cc1ccc2cc(F)ccc2c1)N[*:1])[*:2]; Trp(7-(3-AcNH-Ph)) = CC(=O)Nc1cccc(-c2cccc3c(C[C@H](N)C(=O)O)c[nH]c23)c1; PEG2NMePEG2NMegENMeCl8Tetrazole = not defined here; 2Nal(6-OH) = N[C@@H](Cc1ccc2cc(O)ccc2c1)C(=O)O; Trp(7-Me) = Cc1cccc2c(C[C@H](N)C(=O)O)c[nH]c12; d(hLys(Me3)) = C[N+](C)(C)CCCCC[C@@H](N)C(=O)O; Hexanoyl(6-NMe3+) = C[N+](C)(C)CCCCCC(=O)*; 3Pal(5-Me) = Cc1cncc(C[C@H](N)C(=O)O)c1; γGlu = O=C(O)[C@H](CCC(=O)[*:2])N[*:1]; AEF = NCCOc1ccc(C[C@H](N)C(=O)O)cc1; 3Pal = N[C@@H](Cc1cccnc1)C(=O)O; Lys(Me) = CNCCCC[C@H](N)C(=O)O; NMecPEG3a = not defined here; Pen = CC(C)(S)[C@H](N)C(=O)O; PEG2′ = not defined here; Thp = NC1(C(=O)O)CCOCC1; Me2NCH2CH2 = CN(C)CC*; Tfa = O=C(C(F)(F)F)*; Sar = CNCC(=O)O

T1: IL-23-stimulated phosphorylated STAT3 in peripheral blood mononuclear cells (PBMCs) (Homo sapiens, UniProt Q5VWK5)
T1 sequence (Q5VWK5 24-629): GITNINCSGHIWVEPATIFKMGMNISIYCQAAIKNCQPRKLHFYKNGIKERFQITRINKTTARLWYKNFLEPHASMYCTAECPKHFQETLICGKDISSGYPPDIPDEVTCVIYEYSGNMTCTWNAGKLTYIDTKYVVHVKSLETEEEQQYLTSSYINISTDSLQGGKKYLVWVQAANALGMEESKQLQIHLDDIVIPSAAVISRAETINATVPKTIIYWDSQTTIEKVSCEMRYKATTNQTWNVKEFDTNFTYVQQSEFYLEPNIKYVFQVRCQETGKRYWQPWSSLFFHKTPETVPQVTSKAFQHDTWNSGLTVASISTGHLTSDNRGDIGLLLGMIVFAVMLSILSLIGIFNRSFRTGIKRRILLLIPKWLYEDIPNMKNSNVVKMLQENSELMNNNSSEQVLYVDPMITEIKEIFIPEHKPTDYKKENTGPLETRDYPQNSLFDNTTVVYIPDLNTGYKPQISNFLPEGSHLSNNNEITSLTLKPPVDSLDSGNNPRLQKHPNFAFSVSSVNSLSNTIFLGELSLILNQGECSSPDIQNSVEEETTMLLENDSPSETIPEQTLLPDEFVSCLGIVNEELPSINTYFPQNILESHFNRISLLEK

T2: IL-23R (Homo sapiens, UniProt Q5VWK5)
T2 construct: host or cells: HEK293
T2 sequence (Q5VWK5 24-629): T1 sequence (Q5VWK5 24-629)

T3: interleukin-23 receptor (IL-23R) (UniProt Q5VWK5 24-629, limits assumed)
T3 sequence (looked up): T1 sequence (Q5VWK5 24-629)

T4: interleukin-23 receptor (IL-23R) (UniProt Q5VWK5 24-629, limits assumed)
T4 sequence (looked up): T1 sequence (Q5VWK5 24-629)

B1: SEQ ID NO: 11 (peptide)
peptide: XXNTXXXXXXENXX
modifications: MeCO-k(Me)3-Pen(3)-N-T-7(3NAcPh)W-K(Ac)-Pen(3)-AEF(G)-6OH2Nal-THP-E-N-5MePyridinAla-Sar-CONH2
B2: SEQ ID NO: 319 (peptide)
peptide: cPEG3aCO-[Pen]NT[Trp(7-Me)]K(NMecPEG3a)[Pen][AEF][2Nal(6-OH)][Thp]EN[3Pal][Sar]-NH2
modifications: disulfide 1-6 (inferred); not fully specified; printed as cPEG3aCO-Pen(3)-N-T-7MeW-K(NMecPEG3a)-Pen(3)-AEF-6OH2Nal-THP-E-N-3Pya-Sar-CONH2; reading uncertain
B3: SEQ ID NO: 11 (peptide)
peptide: XXNTXXXXXXENXX
modifications: MeCO-k(Me)3-Pen(3)-N-T-7(3NAcPh)W-K(Ac)-Pen(3)-AEF(G)-6OH2Nal-THP-E-N-5MePyridinAla-Sar-CONH2
B4: SEQ ID NO: 349 (peptide)
peptide: Ac-X[Pen]NT[Trp(7-Me)]K(Ac)[Pen][AEF][2Nal(6-OH)][Thp]EN[3Pal][Sar]-NH2
modifications: disulfide 2-7 (inferred); not fully specified (residue 1); printed as MeCO-k(d)-Pen(3)-N-T-7MeW-K(Ac)-Pen(3)-AEF-6OH2Nal-THP-E-N-3Pya-Sar-CONH2

Tests used:
[1] = target: T1, IL-23-stimulated phosphorylated STAT3 in peripheral blood mononuclear cells (PBMCs); assay: PBMC pSTAT3 Assay; format: cell-based; details: PBMCs from healthy donors, IL-23 5 ng/mL, 30 minutes, read-out: PBMC pSTAT3 IC50
How it was run: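 Anti-CD3/IL-1β-expanded donor PBMCs (day 4) starved ~4 h in RPMI-0.1% BSA, preincubated 30 min with peptide, then stimulated 30 min at 37° C with 5 ng/mL IL-23 (final). Lysates read for phospho-STAT3 by Meso Scale phospho-STAT panel immunoassay.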

IL-23R = target: T2, IL-23R; assay: IL23R Reporter Assay; format: cell-based; details: HEK293 cells containing IL-23R, IL-12Rβ1 and STAT-inducible luciferase reporter; 10 ng/mL IL-23; 5 h; read-out: IC50
Experimental: Compounds were serially diluted in 100% (v/v) DMSO) and plated using an Echo acoustic dispenser (Labcyte) into 1536-well non-treated black assay plates (Corning #9146). […] After 5 h at 37° C., 5% CO2, 95% relative humidity, cells were placed at 20° C. and treated with BioGlo reagent (Promega) according to the Manufacturer's instructions. Luminescence was measured on a Pherastar FSX (BMG LabTech).

[2] = disulfide bond, 20-membered ring, I2/MeOH, 20% MeCN/H2O
[3] = target: T3, interleukin-23 receptor (IL-23R); assay: cell-based or functional assay
[4] = target: T4, interleukin-23 receptor (IL-23R); assay: cell-based or functional assay; remark: listed apart in the source

| Molecule | PBMC pSTAT3 IC50 [3] | other results |
| --- | --- | --- |
| CC(=O)NCCCC[C@@H]1NC(=O)[C@H](Cc2c[nH]c3c(C)cccc23)NC(=O)[C@H]([C@@H](C)O)NC(=O)[C@H](CC(N)=O)NC(=O)[C@@H](NC(C)=O)C(C)(C)SSC(C)(C)[C@@H](C(=O)N[C@@H](Cc2ccc(OCCN)cc2)C(=O)N[C@@H](Cc2ccc3cc(O)ccc3c2)C(=O)NC2(C(=O)N[C@@H](CCC(=O)O)C(=O)N[C@@H](CC(N)=O)C(=O)N[C@@H](Cc3cccnc3)C(=O)N(C)CC(N)=O)CCOCC2)NC1=O [SEQ ID NO: 428, MeCO-Pen(3)-N-T-7MeW-K(Ac)-Pen(3)-AEF-6OH2Nal-THP-E-N-3Pya-Sar-CONH2] (Ac-[Pen]NT[Trp(7-Me)]K(Ac)[Pen][AEF][2Nal(6-OH)][Thp]EN[3Pal][Sar]-NH2; disulfide 1-6) |  | IC50 [1]: < 0.01 nM; IC50 (IL-23R): < 10 nM; ring closure, yield after HPLC ([2]; from Ac-Pen-Asn-Thr-7MeTrp-Lys(Ac)-Pen-AEF-6OH2Nal-THP-Glu-Asn-3Pya-Sar-NH2, 1.0 mM): 8.61% |
| CC(=O)N[C@H](CCCCC[N+](C)(C)C)C(=O)N[C@@H]1C(=O)N[C@@H](CC(=O)N(C)C)C(=O)N[C@@H]([C@@H](C)O)C(=O)N[C@@H](Cc2c[nH]c3c(C)cccc23)C(=O)N[C@@H](CCCCN(C)C(C)=O)C(=O)N[C@H](C(=O)N[C@@H](Cc2ccc(OCCN)cc2)C(=O)N[C@@H](Cc2ccc3cc(O)ccc3c2)C(=O)NC2(C(=O)N[C@@H](CCC(=O)O)C(=O)N[C@@H](CC(N)=O)C(=O)N[C@@H](Cc3cccnc3)C(=O)N(C)CC(=O)N(C)C)CCOCC2)C(C)(C)SSC1(C)C [SEQ ID NO: 389, MeCO-hk(Me)3-Pen(3)-N(N(Me)2)-T-7MeW-K(NMeAc)-Pen(3)-AEF-6OH2Nal-THP-E-N-3Pya-Sar-CON(Me)2] (Ac-[d(hLys(Me3))][Pen]D(NMe2)T[Trp(7-Me)][Lys(Me)](Ac)[Pen][AEF][2Nal(6-OH)][Thp]EN[3Pal][Sar]-NMe2; disulfide 2-7) |  | IC50 [1]: < 0.01 nM; IC50 (IL-23R): < 10 nM; ring closure, yield after HPLC ([2]; from Ac-dhLys(Me3)-Pen-Asn(NMe2)-Thr-7MeTrp-Lys(NMeAc)-Pen-AEF-6OH2Nal-THP-Glu-Asn-3Pya-Sar-NMe2?, 0.92 mM): 11% |
| Cc1cccc2c(C[C@@H]3NC(=O)[C@H]([C@@H](C)O)NC(=O)[C@H](CC(=O)N(C)C)NC(=O)[C@@H](NC(=O)[C@@H](CCCCNC(=O)CCCCC[N+](C)(C)C)NC(=O)C(F)(F)F)C(C)(C)SSC(C)(C)[C@@H](C(=O)N[C@@H](Cc4ccc(OCCN(C)C)cc4)C(=O)N[C@@H](Cc4ccc5cc(O)ccc5c4)C(=O)NC4(C(=O)N[C@@H](CCC(=O)N(C)C)C(=O)N[C@@H](CC(N)=O)C(=O)N[C@@H](Cc5cccnc5)C(=O)N(C)CC(=O)N(C)C)CCOCC4)NC(=O)[C@H](CCC(=O)N(C)C)NC3=O)c[nH]c12 [SEQ ID NO: 405, CF3CO-k(5cpa)-Pen(3)-N(N(Me)2)-T-7MeW-Q(N(Me)2)-Pen(3)-AEF(N(Me)2)-6OH2Nal-THP-Q(N(Me)2)-N-3Pya-Sar-CON(Me)2] (Tfa-[dK](Hexanoyl(6-NMe3+))[Pen]D(NMe2)T[Trp(7-Me)]E(NMe2)[Pen]Y(Me2NCH2CH2)[2Nal(6-OH)][Thp]E(NMe2)N[3Pal][Sar]-NMe2; disulfide 2-7) |  | IC50 [1]: 0.01 to 0.1 nM; IC50 (IL-23R): < 10 nM; ring closure, yield after HPLC ([2]; from CF3CO-dLys(5cpa)-Pen-Asn(NMe2)-Thr-7MeTrp-Gln(NMe2)-Pen-AEF(NMe2)-6OH2Nal-THP-Gln(NMe2)-Asn-3Pya-Sar-NMe2, 0.51 mM): 13.4% |
| B1 | < 10 pM |  |
| Ac-[dR][Pen]NT[Trp(7-Me)]K(Ac)[Pen][AEF][2Nal(6-OH)][Thp]EN[3Pal][Sar]K(PEG2NMePEG2NMegENMeCl8Tetrazole)-NH2 (disulfide 2-7 (inferred); reading uncertain) [SEQ ID NO: 115] | < 1 nM |  |
| Ac-[Pen]NT[Trp(7-Me)]K(Ac)[Pen][AEF][2Nal(6-OH)][Thp]EN[3Pal][Sar]-NH2 (disulfide 1-6 (inferred)) [SEQ ID NO: 428] | < 10 pM |  |
| Ac-[dR][Pen]NT[Trp(7-Me)]K(Ac)[Pen][AEF][6F2Nal][Thp]EN[3Pal][Sar]-NH2 (disulfide 2-7 (inferred)) [SEQ ID NO: 407] | < 0.1 nM |  |
| B2 | < 0.1 nM |  |
| Ac-[Pen]NT[Trp(7-Me)]K(Ac)[Pen][AEF][2Nal(6-OH)][Thp]EN[3Pal][Sar]K([PEG2′-PEG2′-γGlu-C18OH])-NH2 (disulfide 1-6 (inferred)) [SEQ ID NO: 283] | < 1 nM |  |
| Ac-[dR][Pen]NT[Trp(7-Me)]K(Ac)[Pen][AEF][2Nal(6-OH)][Thp]EN[3Pal][Sar]-NH2 (disulfide 2-7 (inferred)) [SEQ ID NO: 442] | < 10 pM |  |
| Ac-[dR][Pen]NT[Trp(7-Me)]K(Ac)[Pen][AEF][6Br2Nal][Thp]EN[Thp]-NH2 (disulfide 2-7 (inferred)) [SEQ ID NO: 444] | > 1 nM |  |
| Ac-[Pen]NT[Trp(7-Me)]K(Ac)[Pen][AEF][2Nal(6-OH)][Thp]K([PEG2′-PEG2′-γGlu-C18OH])N[3Pal][Sar]-NH2 (disulfide 1-6 (inferred)) [SEQ ID NO: 273] | < 0.1 nM |  |
| Ac-[dR][Pen]NT[Trp(7-Me)]K(Ac)[Pen][AEF][2Nal(6-OH)][Thp]EN[3Pal][Sar]K([PEG2′-PEG2′-γGlu-C18OH])-NH2 (disulfide 2-7 (inferred)) [SEQ ID NO: 282] | < 1 nM |  |
| Ac-[dR][Pen]NT[Trp(7-(3-AcNH-Ph))]K(Ac)[Pen][AEF][2Nal(6-OH)][Thp]EN[3Pal][Sar]-NH2 (disulfide 2-7 (inferred)) [SEQ ID NO: 287] | < 0.1 nM |  |
| B3 |  | IL23R Reporter Assay IC50 [4]: < 10 nM |
| Ac-[dR][Pen]NT[Trp(7-(3-AcNH-Ph))]K(Ac)[Pen][AEF(G)][2Nal(6-OH)][Thp]EN[3Pal(5-Me)][Sar]-NH2 (disulfide 2-7 (inferred)) [SEQ ID NO: 15] | < 10 pM |  |
| B4 | < 10 pM |  |
| Ac-[dR][Pen]NT[Trp(7-Me)]K(Ac)[Pen][TMAPF][2Nal(6-OH)][Thp]EN[3Pal][Sar]-NH2 (disulfide 2-7 (inferred)) [SEQ ID NO: 59] | < 0.1 nM |  |
